Measurements taken from US20070224188A1.

The substances below were run against biotin-labeled soluble FcRn (assay: FcRn ELISA pH 6.0).

Row | Substance | FcRn pH6.0 (% of wild type) | FcRn6.0 (% of wild type)
1 | anti-CD20 IgG1 V379N (antibody) | 74 | 
2 | anti-CD20 IgG1 E430F (antibody) | 218 | 
3 | anti-CD20 IgG1 T250R (antibody) | 62 | 
4 | anti-CD20 IgG1 I253A (antibody) | 0 | 
5 | anti-CD20 IgG1 S440N (antibody) | 82 | 
6 | anti-CD20 IgG1 D270G (antibody) | 108 | 
7 | anti-CD20 IgG1 P343G (antibody) | 110 | 
8 | anti-CD20 IgG1 Y373V (antibody) | 69 | 
9 | anti-CD20 IgG1 V279S (antibody) | 242 | 
10 | anti-CD20 IgG1 E272H (antibody) | 157 | 
11 | anti-CD20 IgG1 D249P (antibody) | 138 | 
12 | anti-CD20 IgG1 P343S (antibody) | 101 | 
13 | anti-CD20 IgG1 P247L (antibody) | 57 | 
14 | anti-CD20 IgG1 G237E (antibody) | 93 | 
15 | anti-CD20 IgG1 L251I (antibody) | 7 | 
16 | anti-CD20 IgG1 P343Y (antibody) | 112 | 
17 | anti-CD20 IgG1 P343W (antibody) | 56 | 
18 | anti-CD20 IgG1 V279R (antibody) | 130 | 
19 | anti-CD20 IgG1 L328V (antibody) | 101 | 
20 | anti-CD20 IgG1 G236R (antibody) | 101 | 
21 | anti-CD20 IgG1 E430Y (antibody) | 126 | 
22 | anti-CD20 IgG1 D376E (antibody) | 82 | 

Row | Substance | FcRn pH6.0 (% of wild type) | FcRn6.0 (% of wild type)
23 | anti-CD20 IgG1 A330K (antibody) | 108 | 
24 | anti-CD20 IgG1 V264S (antibody) | 78 | 
25 | anti-CD20 IgG1 I332W (antibody) | 123 | 
26 | anti-CD20 IgG1 251F376I (antibody) |  | 66
27 | anti-CD20 IgG1 376V430R (antibody) |  | 188
28 | anti-CD20 IgG1 T256S (antibody) | 169 | 
29 | anti-CD20 IgG1 D376L (antibody) | 78 | 
30 | anti-CD20 IgG1 S440V (antibody) | 98 | 
31 | anti-CD20 IgG1 Y436I (antibody) | 194 | 
32 | anti-CD20 IgG1 I332M (antibody) | 128 | 
33 | anti-CD20 IgG1 272R311I (antibody) |  | 396
34 | anti-CD20 IgG1 P247F (antibody) | 6 | 
35 | anti-CD20 IgG1 H429F (antibody) | 77 | 
36 | anti-CD20 IgG1 S254F (antibody) | 0 | 
37 | anti-CD20 IgG1 E283I (antibody) | 143 | 
38 | anti-CD20 IgG1 S254H (antibody) | 0 | 
39 | anti-CD20 IgG1 D376T (antibody) | 160 | 
40 | anti-CD20 IgG1 P238V (antibody) | 102 | 
41 | anti-CD20 IgG1 Y373G (antibody) | 38 | 
42 | anti-CD20 IgG1 D376A (antibody) | 155 | 
43 | anti-CD20 IgG1 Y373N (antibody) | 61 | 
44 | anti-CD20 IgG1 P271T (antibody) | 96 | 

Row | Substance | FcRn pH6.0 (% of wild type) | FcRn6.0 (% of wild type)
45 | anti-CD20 IgG1 T256K (antibody) | 31 | 
46 | anti-CD20 IgG1 332E440Y (antibody) |  | 94
47 | anti-CD20 IgG1 T256P (antibody) | 190 | 
48 | anti-CD20 IgG1 L314V (antibody) | 21 | 
49 | anti-CD20 IgG1 343R345D (antibody) |  | 143
50 | anti-CD20 IgG1 P247I (antibody) | 79 | 
51 | anti-CD20 IgG1 V279W (antibody) | 162 | 
52 | anti-CD20 IgG1 V279A (antibody) | 214 | 
53 | anti-CD20 IgG1 S440Y (antibody) | 100 | 
54 | anti-CD20 IgG1 N286F (antibody) | 307 | 
55 | anti-CD20 IgG1 K288P (antibody) | 119 | 
56 | anti-CD20 IgG1 256P332E (antibody) |  | 121
57 | anti-CD20 IgG1 Y373E (antibody) | 106 | 
58 | anti-CD20 IgG1 H285N (antibody) | 202 | 
59 | anti-CD20 IgG1 272R376V (antibody) |  | 369
60 | anti-CD20 IgG1 247L251F330R332E (antibody) |  | 50
61 | anti-CD20 IgG1 E430R (antibody) | 249 | 
62 | anti-CD20 IgG1 E382L (antibody) | 126 | 
63 | anti-CD20 IgG1 332E376V (antibody) |  | 132
64 | anti-CD20 IgG1 D376Q (antibody) | 116 | 
65 | anti-CD20 IgG1 376V430Q (antibody) |  | 212
66 | anti-CD20 IgG1 S254G (antibody) | 7 | 

Row | Substance | FcRn pH6.0 (% of wild type) | FcRn6.0 (% of wild type)
67 | anti-CD20 IgG1 Q311F (antibody) | 64 | 
68 | anti-CD20 IgG1 314Y332E440Y (antibody) |  | 82
69 | anti-CD20 IgG1 T256D (antibody) | 544 | 
70 | anti-CD20 IgG1 S440H (antibody) | 110 | 
71 | anti-CD20 IgG1 D280A (antibody) | 55 | 
72 | anti-CD20 IgG1 R292E (antibody) | 65 | 
73 | anti-CD20 IgG1 D376V (antibody) | 251 | 
74 | anti-CD20 IgG1 256P311I (antibody) |  | 268
75 | anti-CD20 IgG1 E272N (antibody) | 110 | 
76 | anti-CD20 IgG1 E382Y (antibody) | 188 | 
77 | anti-CD20 IgG1 P343A (antibody) | 110 | 
78 | anti-CD20 IgG1 K288N (antibody) | 162 | 
79 | anti-CD20 IgG1 T250M (antibody) | 165 | 
80 | anti-CD20 IgG1 V279Q (antibody) | 181 | 
81 | anti-CD20 IgG1 L432S (antibody) | 70 | 
82 | anti-CD20 IgG1 258D307E (antibody) |  | 237
83 | anti-CD20 IgG1 P247Q (antibody) | 26 | 
84 | anti-CD20 IgG1 Q438T (antibody) | 126 | 
85 | anti-CD20 IgG1 V279H (antibody) | 173 | 
86 | anti-CD20 IgG1 258D286F (antibody) |  | 445
87 | anti-CD20 IgG1 Q438K (antibody) | 169 | 
88 | anti-CD20 IgG1 A339F (antibody) | 120 | 

Row | Substance | FcRn pH6.0 (% of wild type) | FcRn6.0 (% of wild type)
89 | anti-CD20 IgG1 251F332E (antibody) |  | 72
90 | anti-CD20 IgG1 S424V (antibody) | 57 | 
91 | anti-CD20 IgG1 279D307E (antibody) |  | 522
92 | anti-CD20 IgG1 H429M (antibody) | 83 | 
93 | anti-CD20 IgG1 P343I (antibody) | 114 | 
94 | anti-CD20 IgG1 Y373K (antibody) | 70 | 
95 | anti-CD20 IgG1 K248Q (antibody) | 38 | 
96 | anti-CD20 IgG1 A339S (antibody) | 95 | 
97 | anti-CD20 IgG1 E430I (antibody) | 308 | 
98 | anti-CD20 IgG1 A431P (antibody) | 29 | 
99 | anti-CD20 IgG1 T256E (antibody) | 339 | 
100 | anti-CD20 IgG1 258D376V (antibody) |  | 415
101 | anti-CD20 IgG1 G341W (antibody) | 76 | 
102 | anti-CD20 IgG1 P247E (antibody) | 52 | 
103 | anti-CD20 IgG1 D376F (antibody) | 116 | 
104 | anti-CD20 IgG1 G237K (antibody) | 78 | 
105 | anti-CD20 IgG1 S254T (antibody) | 32 | 
106 | anti-CD20 IgG1 268E332E (antibody) |  | 88
107 | anti-CD20 IgG1 N434Y (antibody) | 1620 | 
